Results taken from patent US20220089694A1 (US Dept. of Health and Human Services, published 2022).

T1: EBOV GP on pseudotyped lentiviral particles (Ebola virus (EBOV), UniProt Q05320 33-676)
T1 sequence: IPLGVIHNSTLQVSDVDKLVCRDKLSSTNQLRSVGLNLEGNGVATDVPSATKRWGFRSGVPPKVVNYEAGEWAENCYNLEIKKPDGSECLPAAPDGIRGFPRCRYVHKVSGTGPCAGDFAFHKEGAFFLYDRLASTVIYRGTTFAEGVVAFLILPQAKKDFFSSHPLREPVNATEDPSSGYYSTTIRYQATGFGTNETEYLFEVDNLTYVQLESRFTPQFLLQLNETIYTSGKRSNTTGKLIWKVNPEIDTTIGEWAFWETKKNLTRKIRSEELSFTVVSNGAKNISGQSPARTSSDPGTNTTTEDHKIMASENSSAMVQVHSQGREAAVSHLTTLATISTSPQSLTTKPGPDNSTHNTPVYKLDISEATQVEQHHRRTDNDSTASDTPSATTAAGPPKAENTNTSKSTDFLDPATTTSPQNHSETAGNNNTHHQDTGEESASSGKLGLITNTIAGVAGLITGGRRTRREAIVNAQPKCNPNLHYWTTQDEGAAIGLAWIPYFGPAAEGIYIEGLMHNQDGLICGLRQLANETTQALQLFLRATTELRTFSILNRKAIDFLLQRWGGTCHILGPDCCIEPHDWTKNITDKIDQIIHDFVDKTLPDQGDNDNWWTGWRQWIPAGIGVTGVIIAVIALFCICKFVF

B1: EboV.YD.01 IgG (antibody, V domains shown)
VH: QVRLVQSGGGLVKPGGSLRLSCAASGFTFSTFAMHWVRQAPGKGLEWVSSISRSSGSINYADSVKGRFTISRDNAKNSLFLQMNSLRADDTAVYYCARENTIPFGGGVVLERASHFDYWGQGTTVTVSS
VL: DIRVTQSPSSLSASVGDRVTIICRASQSSSTFLNWYQQKPGKAPNLLIYAASSLQSGVPSRFSGSGSGTDFTLTISSLQPEDFATYYCQQSYSAPYTFGQGTKVDIK
B2: EboV.YD.03 IgG (antibody, V domains shown)
VH: QVQLQESGPGLVKPSETLSLTCTVSGDSLSSSYWSWIRQSAGKGLEYIGRTYVSGNTKYNPSLKSRVTMSVDTSKNQFSLRLTSVTAADTAVYYCARIRVLPAAMLRGDYWYFDLWGRGTLVTVSS
VL: SYELTQLPSVSVSPGQTASITCSGDKVENKYVCWYQQKSGQSPVLVIYEDSKRPSGIPERFSGSNSGNTATLTISGTQTMDEADYFCQAWDSSIGVFGTGTKLTVL
B3: EboV.YD.02 IgG (antibody, V domains shown)
VH: QVQLVQSGAEVKKPGTSVKISCKASGYSFTSKYMHWVRQAPGQGLEWMGKINPSGGRRDYAQKFQGRVTMTRDTSTSTVYMELSSLRSGDTAVYYCARDMHGVLSWYHALDYWGQGTLVTVSS
VL: DIRVTQSPSSLSTSVGDRVTITCRASQDIGRYLNWYQQKPGKAPKLLIYGASSLQSGVPSRFSGSGSGTDFTLTISSLQPEDFATYYCQQGYRIPITFGQGTRLEIK
B4: EboV.YD.04 IgG (antibody, V domains shown)
VH: QVQLVESGGGLVKPGGSLRLSCAASGFMFSNAWMNWVRQAPGKGLEWVGRIKSRSDGGTTDYAAPVKGRFTFSREDSKNMLYLQMNSLKREDTAVYYCTTRVSIFRGPIEDVWGQGTTVTVSS
VL: QPVLTQPPSVSGAPGQRVTISCAGSSSNIGAGYDVYWYQQLPGTAPKLLIYGNNNRPSGVPDRFSGSKSGTSASLAITGLQAEDEAEYYCQSYDSSLRDSYVFGSGTKVTVL

Target: T1, EBOV GP on pseudotyped lentiviral …
Test: cell-based or functional assay

Binder	% EBOV Neut. (10 µg/mL) [%]
B1	55.1
B2	97.3
B3	70.8
B4	98.8

Target: T1, EBOV GP on pseudotyped lentiviral …
Test: cell-based or functional assay
Remark: another data set of the same source

Binder	IC50, neutralization activity in a pseudotyped virus entry assay [µg/mL]
B1	7.1
B2	1.1
B3	1.6
B4	0.5
